In patent US20090098124A1 (MacroGenics, published 2009):
Residue numbers refer to the chain shown, from its start. Names may count otherwise. Blank lines part the entries; values can stand above or below the binder they belong to.

Experiments:
[1] = target: T1, soluble monomeric FcγRIIIA (extracellular region joined to linker-AVITAG), allele not stated (human, UniProt P08637 17-208); experiment: ELISA
T1 construct: extracellular domain; also called FcRIIIA; CD16A; not shown: linker-AVITAG

[2] = target: T2, soluble dimeric FcγRIIB (extracellular domain fused to hinge-CH2-CH3 of human IgG2) (human, UniProt P31994 43-217); experiment: ELISA
T2 construct: extracellular domain; also called FcRIIB; FcRIIB-Fc; not shown: human IgG2 hinge-CH2-CH3
T2 sequence (looked up): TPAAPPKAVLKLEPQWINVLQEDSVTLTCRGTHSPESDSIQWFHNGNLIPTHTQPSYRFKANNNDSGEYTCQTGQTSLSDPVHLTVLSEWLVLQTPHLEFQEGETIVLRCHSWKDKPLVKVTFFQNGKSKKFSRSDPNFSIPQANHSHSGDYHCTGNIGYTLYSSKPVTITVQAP

T1 sequence (P08637 17-208): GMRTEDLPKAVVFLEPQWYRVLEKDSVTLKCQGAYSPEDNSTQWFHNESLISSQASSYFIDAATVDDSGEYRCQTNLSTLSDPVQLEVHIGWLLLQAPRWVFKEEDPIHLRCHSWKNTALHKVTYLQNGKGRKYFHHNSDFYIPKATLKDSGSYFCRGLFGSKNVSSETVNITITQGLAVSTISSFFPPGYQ

Binding to FcγRIIIA (ELISA) [1]: 1.5 fold increase
Binding to FcγRIIB (ELISA) [2]: 6 fold increase
B1: IgG1 Fc mutant A231V, Q386H, V412M (antibody)
heavy: ASTKGPSVFPLAPSSKSTSGGTAALGCLVKDYFPEPVTVSWNSGALTSGVHTFPAVLQSSGLYSLSSVVTVPSSSLGTQTYICNVNHKPSNTKVDKKVEPKSCDKTHTCPPCPVPELLGGPSVFLFPPKPKDTLMISRTPEVTCVVVDVSHEDPEVKFNWYVDGVEVHNAKTKPREEQYNSTYRVVSVLTVLHQDWLNGKEYKCKVSNKALPAPIEKTISKAKGQPREPQVYTLPPSRDELTKNQVSLTCLVKGFYPSDIAVEWESNGHPENNYKTTPPVLDSDGSFFLYSKLTMDKSRWQQGNVFSCSVMHEALHNHYTQKSLSLSPGK

Binding to FcγRIIIA (ELISA) [1]: 0.25 fold decrease
Binding to FcγRIIB (ELISA) [2]: 10 fold increase
B2: IgG1 Fc mutant C229Y, A287T, V379M, P396L, L443V (antibody)
heavy: B1 heavy with C112Y, V114A, A170T, V262M, H269Q, P279L, M295V, L326V

Binding to FcγRIIIA (ELISA) [1]: 3 fold increase
B3: IgG1 Fc mutant D280E, S354F, A431D, L441I (antibody)
heavy: B1 heavy with V114A, D163E, S237F, H269Q, M295V, A314D, L324I

Binding to FcγRIIIA (ELISA) [1]: 1 fold
B4: IgG1 Fc mutant P247L, A431V, S442F (antibody)
heavy: B1 heavy with V114A, P130L, H269Q, M295V, A314V, S325F

Binding to FcγRIIIA (ELISA) [1]: 0.5 fold increase
B5: IgG1 Fc mutant T335N, K370E, A378V, T394M, S424L (antibody)
heavy: B1 heavy with V114A, T218N, K253E, A261V, H269Q, T277M, M295V, S307L

Binding to FcγRIIIA (ELISA) [1]: 0.5 fold decrease
B6: IgG1 Fc mutant P291S; K288E; H268L: A141V (antibody)
heavy: B1 heavy with A24V, V114A, H151L, K171E, P174S, H269Q, M295V

Binding to FcγRIIIA (ELISA) [1]: 2.2 fold increase
Binding to FcγRIIB (ELISA) [2]: 3.7 fold increase
B7: IgG1 Fc mutant F275L, Q362H, N384K, P396L (antibody)
heavy: B1 heavy with V114A, F158L, Q245H, N267K, H269Q, P279L, M295V

Binding to FcγRIIIA (ELISA) [1]: 1 fold increase
B8: IgG1 Fc mutant K334E, T359N, T366S, Q386R (antibody)
heavy: B1 heavy with V114A, K217E, T242N, T249S, H269R, M295V

Binding to FcγRIIIA (ELISA) [1]: 0.5 fold increase
B9: IgG1 Fc mutant F275I, K334N, V348M (antibody)
heavy: B1 heavy with V114A, F158I, K217N, V231M, H269Q, M295V

Binding to FcγRIIIA (ELISA) [1]: 2.5 fold increase
Binding to FcγRIIB (ELISA) [2]: 6 fold increase
B10: IgG1 Fc mutant D221Y, M252I, A330G, A339T, T359N, V422I, H433L (antibody)
heavy: B1 heavy with D104Y, V114A, M135I, A213G, A222T, T242N, H269Q, M295V, V305I, H316L

Binding to FcγRIIIA (ELISA) [1]: 1.5 fold increase
B11: IgG1 Fc mutant T256S, V305I, K334E, N390S (antibody)
heavy: B1 heavy with V114A, T139S, V188I, K217E, H269Q, N273S, M295V

Binding to FcγRIIIA (ELISA) [1]: 0.5 fold increase
Binding to FcγRIIB (ELISA) [2]: 5 fold increase
B12: IgG1 Fc mutant A378V, N390I, V422I (antibody)
heavy: B1 heavy with V114A, A261V, H269Q, N273I, M295V, V305I

Binding to FcγRIIB (ELISA) [2]: 3 fold increase
B13: IgG1 Fc mutant P244A, K326I, C367R, S375I, K447T (antibody)
heavy: B1 heavy with V114A, P127A, K209I, C250R, S258I, H269Q, M295V, K330T

Binding to FcγRIIIA (ELISA) [1]: 1 fold increase
B14: IgG1 Fc mutant F243L, R255L, E318K (antibody)
heavy: B1 heavy with V114A, F126L, R138L, E201K, H269Q, M295V

binding result [1]: no binding
binding result [2]: no binding
B15: IgG1 Fc mutant E269K, K290N, Q311R, H433Y (antibody)
heavy: B1 heavy with V114A, E152K, K173N, Q194R, H269Q, M295V, H316Y

Binding to FcγRIIIA (ELISA) [1]: 1.6 fold increase
Binding to FcγRIIB (ELISA) [2]: 5.4 fold increase
B16: IgG1 Fc mutant F243L, V305I, A378D, F404S, P396L (antibody)
heavy: B1 heavy with V114A, F126L, V188I, A261D, H269Q, P279L, F287S, M295V

Binding to FcγRIIIA (ELISA) [1]: 3.6 fold increase
Binding to FcγRIIB (ELISA) [2]: 0.1 fold increase
B17: IgG1 Fc mutant D221E, D270E, V308A, Q311H, P396L, G402D (antibody)
heavy: B1 heavy with D104E, V114A, D153E, V191A, Q194H, H269Q, P279L, G285D, M295V
